Test results: the DeepSol protein solubility set

Assay: soluble on expression in E. coli; label from the status in PepcDB or PDB records

Soluble on expression in E. coli, soluble:
MSLGYAFPSILGNLMSKIYQMDAVDWLKTLENCSVDLFITDPPYESLEKYRQIGTTTRLKESKSSSNQWFSVFPNTRFEELFREVYRVLKKGSHFYLFCDQETMFLAKPIAESVGFKFWKPIVWDKCAIGMGYHYRARYEFILFFEKGKRKLNDLSVPDVLEYKRVWKGYPTEKPVELLEVLIRQSSSENEIVADSFFGSGSTLIAANNLSRKYIGCDISSSAHEYFKNRAEGHHHHHH
MSRGDKMLKFEIKARDGAGRIGKLEVNGKKIETPAIMPVVNPKQMVVEPKELEKMGFEIIITNSYIIYKDEELRRKALELGIHRMLDYNGIIEVDSGSFQLMKYGSIEVSNREIIEFQHRIGVDIGTFLDIPTPPDAPREQAVKELEITLSRAREAEEIKEIPMNATIQGSTYTDLRRYAARRLSSMNFEIHPIGGVVPLLESYRFRDVVDIVISSKMALRPDRPVHLFGAGHPIVFALAVAMGVDLFDSASYALYAKDDRYMTPEGTKRLDELDYFPCSCPVCSKYTPQELREMPKEERTRLLALHNLWVIKEEIKRVKQAIKEGELWRLVDERARSHPKLYSAYKRLLEHYTFLEEFEPITKKSALFKISNESLRWPVVRRAKERAKSINERFGELVEHPIFGRVSRYLSLTYPFAQSEAEDDFKIEKPTKEDAIKYVMAIAEYQFGEGASRAFDDAKVELSKTGMPRQVKVNGKRLATVRADDGLLTLGIEGAKRLHRVLPYPRMRVVVNKEAEPFARKGKDVFAKFVIFADPGIRPYDEVLVVNENDELLATGQALLSGREMIVFQYGRAVKVRKGVE

Soluble on expression in E. coli, not soluble:
MSLNEPLAERIRPKTLEDYVSQQHLVGENGILTKLIKQGIIPSLILWGPPGIGKTTLANIIATTSNRPFYTLSAISSGVKDVRDVIEKAKKSGGLFTAKNPILFIDEIHRFSKSQQDSLLGAVEKGWVTLIGATTENPSFEVIPALLSRCQIYILNSFDKEELIALLHRAMEKDAFLSSKKIILKETEALLQVSGGDARKLLNIFELLVSVDDEVVITNELVLSKIQKNTARYDKSGPQHYDIVSAFIKSIRGSDPNAAVYWLARMIEGGEDVKFIARRMLILASEDIGNANPTALIMANNTFQAVAIVGNPESRIILSQCAIYLSNSAKSNASYLAIGAAQKLVQETGDLSVPLNLRNAPTKLMKDLDYGADYKYSHDYPNSFVAQEFLPKTLSGNKIYTPGKNPREQQFKEVLKNRWKNKYEGHHHHHH
MDTTNQSEDIKPCDSDLMESILMFDEPISDILAHNKLWISHARTRSNFFPQEGRHISNQHTEAATSLKMWMLSKNLVVIVKRKDDIFPCKILTRNPENLFVARFLESGKEKHIQVEYSDIIMTRSELEKALPLCQHLIPARNWDDFYIIRDFEKATPYFEQGLSALVKPGQQFELQLEDAPDFYVMATVVKNYRGFLLVEYQNVSCVQKKTMPVFLFHFLMLFQFKRWIHMLSPYCHEIGWGKNEKQEYLKRGPYNRHMNVDLVAGLVKQSTNQKLGAVPEIVFRNNCPVPHRIPEYSACVYLDLDQKRFYFAHKVTTKTCRNNRHFFNISIGKNLVTSKQNNRPYEFHVYHPRILPYSVAKRMEVQIILPPDVKLLPDESNLDGYLRTYCNPCDKHKTSDRVQPSPKIAKKKNGPLLLDDTPDAMFRSRPLLGDNIGAHKEWTNFMNHIPDYKRKDLLKSMDTLKFCEIFRPTPTGALQLTAAEVTGQQECMLRLKVSGEDEPVYIHNADPHLYHLGACLDMELAINFHGEFFDEKPLKKNKNANNGFSSF
MGSDKIHHHHHHMSAIAERSKPSEHMPVLPEFTPLERAIINRLQYGLPLTRTPYKDVADELGVSEVTLLKHLQALLDNGTLTRFGPMFHAGEMGGGLTLAAMRIPEQDFANVTEQVNSFPEVAHNYRREHELNMWFVLATETPEGITETIQRIESLTGYTVYNMPKEQEFHVHLHFEV
MGSDKIHHHHHHMFENEILFDNGQHKFMFLGWEEKEEEIVQTNQYLILDGNEGILLDPGGAHVFPRVMSNVAEVVDLSSIRHIFYTHQDPDVTSGILLWLSICENAKIYISSLWVRFLPHFGIYDQKRIVPISDKGTKIKLLSGNELEILPAHFLHSTGNFVLYDPVAKILFSGDIGAAVFEKGKRYRYVDDFERHLPLMEAFHKRYMSSNAACKKWVDMVSKKKIDMIAPQHGAVFRGESVKKFLEWFRNLKCGVDLIDNLYSL
MDFEKIRKWLEITNEYKQSDFWTNVLKYKAPEHFFDSEASTFVYDFYQDEEYNFIIVEMPGVYEEELTIRLLSKTQLLIKGTITPVFPAEMEVLRERYYGEIERIIQLPEAAETHLLQIQLLNGLLHISYPRQVETVAFNKGLLEHHHHHH
